# Values quoted from earlier work in patent US20050019270A1, “Formulation of powder containing nanoparticles for aerosol delivery to the lungs” (priority 2003, published 2005).
# Conditions: spray drying with polysorbate 20 added
substance,measurement,value
recombinant human growth hormone: Protein in a prior spray drying study with polysorbate 20,surface aggregation,< 2%
